Values of other authors as cited in article PMC2652250.

Target: cardiac troponin I 147-163 (Homo sapiens) (UniProt P19429)
Experiment: NMR

## cardiac troponin C (cNTnC) N-terminal domain (from UniProt P63316)
  Kd: 154 µM
